Here are results for 1 protein from US7244591.

The data set concerns the target T1, recombinant human parathyroid hormone (hPTH), intact molecule (1-84), P01270.
T1 chain: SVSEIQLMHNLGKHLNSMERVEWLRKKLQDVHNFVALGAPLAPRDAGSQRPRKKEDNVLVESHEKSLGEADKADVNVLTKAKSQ

B1: Yapsin 1 (protein)
chain: ADGYEEIIITNQQSFYSVDLEVGTPPQNVTVLVDTGSSDLWIMGSDNPYCSSNSMGSSRRRVIDKRDDSSSGGSLINDINPFGWLTGTGSAIGPTATGLGGGSGTATQSVPASEATMDCQQYGTFSTSGSSTFRSNNTYFSISYGDGTFASGTFGTDVLDLSDLNVTGLSFAVANETNSTMGVLGIGLPELEVTYSGSTASHSGKAYKYDNFPIVLKNSGAIKSNTYSLYLNDSDAMHGTILFGAVDHSKYTGTLYTIPIVNTLSASGFSSPIQFDVTINGIGISDSGSSNKTLTTTKIPALLDSGTTLTYLPQTVVSMIATELGAQYSSRIGYYVLDCPSDDSMEIVFDFGGFHINAPLSSFILSTGTTCLLGIIPTSDDTGTILGDSFLTNAYVVYDLENLEISMAQARYNTTSENIEIITSSVPSAVKAPGYTNTWSTSASIVTGGNIFTVNSSQTASFSGNLTTSTASATSTSSKRN
As to B1, the “cleavage of secreted hPTH into the truncated d1 form (27-84), SDS-PAGE of culture supernatants of wild-type and yps1-disrupted strains” value is “the main protease causative of the cleavage of hPTH in the early culture stage is Yapsin 1”.
